T1: fibrin clot polymerization (Homo sapiens, UniProt P02671+P02675+P02679)
T1 sequence (P02671 36-866 limits assumed): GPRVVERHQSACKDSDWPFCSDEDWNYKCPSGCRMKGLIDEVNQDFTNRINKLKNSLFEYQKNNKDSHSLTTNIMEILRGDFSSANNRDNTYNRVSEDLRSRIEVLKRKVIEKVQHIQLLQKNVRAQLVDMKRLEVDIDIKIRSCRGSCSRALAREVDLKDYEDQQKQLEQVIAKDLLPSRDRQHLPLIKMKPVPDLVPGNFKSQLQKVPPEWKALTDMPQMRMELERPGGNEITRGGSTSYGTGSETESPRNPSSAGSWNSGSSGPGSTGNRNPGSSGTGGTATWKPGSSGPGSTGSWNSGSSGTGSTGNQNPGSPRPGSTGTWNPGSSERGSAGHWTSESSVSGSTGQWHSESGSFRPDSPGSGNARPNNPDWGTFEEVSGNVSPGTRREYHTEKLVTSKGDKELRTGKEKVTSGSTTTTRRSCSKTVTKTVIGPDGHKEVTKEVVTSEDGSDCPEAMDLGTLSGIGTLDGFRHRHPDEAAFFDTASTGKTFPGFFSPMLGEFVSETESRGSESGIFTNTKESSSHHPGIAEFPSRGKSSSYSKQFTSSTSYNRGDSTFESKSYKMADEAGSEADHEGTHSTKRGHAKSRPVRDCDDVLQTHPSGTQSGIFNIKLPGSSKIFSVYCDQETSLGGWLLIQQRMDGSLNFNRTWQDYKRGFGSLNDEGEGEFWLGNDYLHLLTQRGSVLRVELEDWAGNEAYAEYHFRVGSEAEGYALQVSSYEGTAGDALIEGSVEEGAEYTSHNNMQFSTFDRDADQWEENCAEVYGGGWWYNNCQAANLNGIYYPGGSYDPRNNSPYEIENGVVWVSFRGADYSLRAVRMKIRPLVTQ
T1 sequence (P02675 45-491 limits assumed): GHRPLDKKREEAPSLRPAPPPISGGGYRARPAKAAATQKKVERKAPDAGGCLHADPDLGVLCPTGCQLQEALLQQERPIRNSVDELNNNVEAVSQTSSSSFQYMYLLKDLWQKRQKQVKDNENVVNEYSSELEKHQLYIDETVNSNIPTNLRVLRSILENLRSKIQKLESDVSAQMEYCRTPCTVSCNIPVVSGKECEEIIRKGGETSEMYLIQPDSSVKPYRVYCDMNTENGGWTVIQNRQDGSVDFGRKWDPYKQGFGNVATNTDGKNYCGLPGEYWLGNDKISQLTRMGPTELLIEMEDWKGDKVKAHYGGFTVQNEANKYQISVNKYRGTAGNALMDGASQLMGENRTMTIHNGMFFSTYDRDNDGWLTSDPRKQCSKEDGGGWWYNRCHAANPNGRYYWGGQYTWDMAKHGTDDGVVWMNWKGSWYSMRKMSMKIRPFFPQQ
T1 sequence (P02679 27-453): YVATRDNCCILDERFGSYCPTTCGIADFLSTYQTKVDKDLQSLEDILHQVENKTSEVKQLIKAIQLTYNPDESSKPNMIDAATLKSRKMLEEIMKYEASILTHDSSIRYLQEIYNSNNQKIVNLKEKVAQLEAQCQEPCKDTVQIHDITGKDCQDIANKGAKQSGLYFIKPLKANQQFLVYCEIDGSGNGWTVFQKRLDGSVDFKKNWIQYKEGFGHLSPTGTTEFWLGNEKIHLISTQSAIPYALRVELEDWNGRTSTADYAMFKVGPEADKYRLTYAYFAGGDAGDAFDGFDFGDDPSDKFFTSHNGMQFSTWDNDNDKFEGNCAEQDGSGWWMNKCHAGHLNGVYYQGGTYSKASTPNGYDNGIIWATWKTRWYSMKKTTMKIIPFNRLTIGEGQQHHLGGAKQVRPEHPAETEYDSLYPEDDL

B1: PLPs: ultra-low crosslinked pNIPAm-AAc microgels conjugated to fibrin-specific sdFv H6 (conjugate)
VH: QVQLLESGGGLVQPGGSLRLSCAASGDRFTHNDMGWVRQAPGKGLEWVSTIPTTDGSTYYADSVKGRFTISRDNSKSTLYLQMNSLRAEDTAVYYCATGYMWKAPAYVKYWGQGTLVTVSSAAAEQKLISEEDLNSAAHYTDIG
B2: H6: fibrin-specific human sdFv clone from phage biopanning, SEQ ID NO: 1 (protein)
VHH: B1 VH

Tests used:
[1] = tested on: traumatic injury; assay: Hemostasis in rodents following traumatic injury; assay type: in vivo; conditions: 100 mg/kg intravenously
[2] = biological target: T1, fibrin clot polymerization; assay: Turbidity assay of fibrin clot polymerization; assay type: biochemical
Description: H6 interference with fibrin clot polymerization was determined through turbidity and clottability assays. The turbidity assay involved polymerizing physiological fibrin clots (2 mg/mL) in wells of a 96-well plate while taking absorbance measurements at 350 nm every 30 seconds. An increase in absorbance correlates to an increase in clot “cloudiness” which, in turn, indicates gelation. Turbidity of standard fibrin clots was compared to that of clots exposed to varying molar concentrations ranging from 1:1 to 1:1000 molar ratios of nanobody to fibrinogen.

[3] = tested on: human plasma components; assay: Quantitative human plasma binding ELISA; conditions: five 10-fold plasma dilutions
Description: The quantitative assay involved coating a 96-well high-binding plate with five different 10-fold plasma dilutions. H6, S11, or a positive-control anti-fibrinogen antibody were incubated in these wells to allow for binding with plasma components to occur. All wells were set-up in triplicate. After washing away unbound nanobody or antibody and treating with appropriate secondary antibodies and ELISA reagents, the amount of H6, S11 or anti-fibrinogen antibody remaining in each well was measured spectrophotomerically in a plate reader. All readings were normalized to wells in which PBS was incubated with plasma.

Molecule | augmentation of hemostasis [1] | turbidity versus fibrin controls ([2]; all other molar ratios) | turbidity versus fibrin controls ([2]; molar ratio to fibrinogen 1:1, differences not significant) | binding to plasma-coated plate [3]
B1 | effective to augment hemostasis | – | – | –
B2 | – | indistinguishable from physiological fibrin controls | notable difference in turbidity readings | negligible binding

Source: patent publication US11419948B2, “Functionalized microgels with fibrin binding elements” (Georgia Tech Research Corporation, priority 2013, dated 2022)
